Measured values published in PMC12990809.

Assays:
Assay in all cases: pulldown
[1] = biological target: T1, NCU09742 (Neurospora crassa) (UniProt Q7SEI3); conditions: 20 nM protein, 1.5 uM RNA pool; 20 mM HEPES pH 7.8, 70 mM KCl, 10 mM NaCl, 10% glycerol, 2 mM DTT, 0.1 ug/uL BSA; 30 min, 4 C
T1 sequence: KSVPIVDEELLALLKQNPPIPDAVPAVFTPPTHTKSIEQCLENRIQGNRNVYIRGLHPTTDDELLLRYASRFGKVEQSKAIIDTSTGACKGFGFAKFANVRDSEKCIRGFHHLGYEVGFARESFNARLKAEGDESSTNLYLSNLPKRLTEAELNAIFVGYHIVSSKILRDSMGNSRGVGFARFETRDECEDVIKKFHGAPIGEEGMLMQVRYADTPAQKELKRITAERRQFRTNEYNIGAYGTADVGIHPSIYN

hnrnpa0a (Danio rerio) = hnrnpa0a (Danio rerio) (UniProt Q6NYB0); conditions: 20 nM protein, 1.5 uM RNA pool; 20 mM HEPES pH 7.8, 70 mM KCl, 10 mM NaCl, 10% glycerol, 2 mM DTT, 0.1 ug/uL BSA; 30 min, 4 C
hnrnpa0a (Danio rerio), sequence (Q6NYB0 entry or part of it): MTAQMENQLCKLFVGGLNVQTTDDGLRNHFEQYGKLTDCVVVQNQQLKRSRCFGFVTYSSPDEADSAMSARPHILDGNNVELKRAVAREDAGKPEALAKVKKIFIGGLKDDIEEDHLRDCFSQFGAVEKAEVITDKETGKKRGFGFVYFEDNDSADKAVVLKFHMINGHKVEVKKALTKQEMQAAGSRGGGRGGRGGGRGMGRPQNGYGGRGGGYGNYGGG

[2] = biological target: e_gw1.13.00.297.1 (Ostreococcus tauri) (UniProt A0A096P8F1); conditions: 20 nM protein, 1.5 uM RNA pool; 20 mM HEPES pH 7.8, 70 mM KCl, 10 mM NaCl, 10% glycerol, 2 mM DTT, 0.1 ug/uL BSA; 30 min, 4 C
e_gw1.13.00.297.1 (Ostreococcus tauri), sequence (A0A096P8F1 entry or part of it): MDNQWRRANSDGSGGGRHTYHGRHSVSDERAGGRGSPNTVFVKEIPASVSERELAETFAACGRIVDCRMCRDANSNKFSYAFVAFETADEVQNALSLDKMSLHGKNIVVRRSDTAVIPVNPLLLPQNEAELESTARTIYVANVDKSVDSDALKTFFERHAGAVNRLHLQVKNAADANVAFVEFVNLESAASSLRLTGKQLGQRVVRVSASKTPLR

[3] = biological target: T2, hnrnpa0 (Xenopus tropicalis) (UniProt A0A8J0QIP1); conditions: 20 nM protein, 1.5 uM RNA pool; 20 mM HEPES pH 7.8, 70 mM KCl, 10 mM NaCl, 10% glycerol, 2 mM DTT, 0.1 ug/uL BSA; 30 min, 4 C
T2 sequence: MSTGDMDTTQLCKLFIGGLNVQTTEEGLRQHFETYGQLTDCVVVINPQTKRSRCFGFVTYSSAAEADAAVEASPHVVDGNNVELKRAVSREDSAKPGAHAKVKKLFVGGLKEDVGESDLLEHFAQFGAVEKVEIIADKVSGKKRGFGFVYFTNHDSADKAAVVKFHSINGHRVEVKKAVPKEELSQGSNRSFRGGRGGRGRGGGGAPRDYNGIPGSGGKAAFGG

[4] = biological target: T3, PK27183.1 (Cannabis sativa) (UniProt A0A7J6I1V8); conditions: 20 nM protein, 1.5 uM RNA pool; 20 mM HEPES pH 7.8, 70 mM KCl, 10 mM NaCl, 10% glycerol, 2 mM DTT, 0.1 ug/uL BSA; 30 min, 4 C
T3 sequence: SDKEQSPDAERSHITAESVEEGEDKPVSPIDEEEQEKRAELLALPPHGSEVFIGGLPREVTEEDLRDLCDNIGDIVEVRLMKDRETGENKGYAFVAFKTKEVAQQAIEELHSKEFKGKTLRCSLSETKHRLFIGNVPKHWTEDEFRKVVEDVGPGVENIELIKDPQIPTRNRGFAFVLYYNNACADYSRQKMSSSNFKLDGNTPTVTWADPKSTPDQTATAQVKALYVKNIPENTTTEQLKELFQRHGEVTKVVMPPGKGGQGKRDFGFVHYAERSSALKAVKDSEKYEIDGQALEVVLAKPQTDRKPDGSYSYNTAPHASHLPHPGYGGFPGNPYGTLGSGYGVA

[5] = biological target: estExt_fgenesh1_pg.C_Chr_03.00010087 (Ostreococcus tauri) (UniProt A0A096P7J9); conditions: 20 nM protein, 1.5 uM RNA pool; 20 mM HEPES pH 7.8, 70 mM KCl, 10 mM NaCl, 10% glycerol, 2 mM DTT, 0.1 ug/uL BSA; 30 min, 4 C
estExt_fgenesh1_pg.C_Chr_03.00010087 (Ostreococcus tauri), sequence (A0A096P7J9 entry or part of it): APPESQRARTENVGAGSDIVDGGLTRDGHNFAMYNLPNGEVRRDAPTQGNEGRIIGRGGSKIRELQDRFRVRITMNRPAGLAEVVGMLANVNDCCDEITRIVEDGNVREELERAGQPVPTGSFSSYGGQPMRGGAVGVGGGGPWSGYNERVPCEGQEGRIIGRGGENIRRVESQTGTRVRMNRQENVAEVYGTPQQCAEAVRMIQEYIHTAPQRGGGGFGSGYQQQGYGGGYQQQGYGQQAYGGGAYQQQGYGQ

[6] = biological target: T4, HRP1 (Saccharomyces cerevisiae) (UniProt Q99383); conditions: 20 nM protein, 1.5 uM RNA pool; 20 mM HEPES pH 7.8, 70 mM KCl, 10 mM NaCl, 10% glycerol, 2 mM DTT, 0.1 ug/uL BSA; 30 min, 4 C (protocol of this paper; not …); cited from earlier work
T4 sequence: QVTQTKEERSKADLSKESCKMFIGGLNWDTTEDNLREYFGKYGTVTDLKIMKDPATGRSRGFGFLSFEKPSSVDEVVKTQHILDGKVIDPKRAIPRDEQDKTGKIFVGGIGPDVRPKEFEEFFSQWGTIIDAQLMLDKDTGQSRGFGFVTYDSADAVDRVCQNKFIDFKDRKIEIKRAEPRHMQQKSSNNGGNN

[7] = biological target: T5, LmjF.27.2100 (Leishmania major) (UniProt E9ADJ0); conditions: 20 nM protein, 1.5 uM RNA pool; 20 mM HEPES pH 7.8, 70 mM KCl, 10 mM NaCl, 10% glycerol, 2 mM DTT, 0.1 ug/uL BSA; 30 min, 4 C
T5 sequence: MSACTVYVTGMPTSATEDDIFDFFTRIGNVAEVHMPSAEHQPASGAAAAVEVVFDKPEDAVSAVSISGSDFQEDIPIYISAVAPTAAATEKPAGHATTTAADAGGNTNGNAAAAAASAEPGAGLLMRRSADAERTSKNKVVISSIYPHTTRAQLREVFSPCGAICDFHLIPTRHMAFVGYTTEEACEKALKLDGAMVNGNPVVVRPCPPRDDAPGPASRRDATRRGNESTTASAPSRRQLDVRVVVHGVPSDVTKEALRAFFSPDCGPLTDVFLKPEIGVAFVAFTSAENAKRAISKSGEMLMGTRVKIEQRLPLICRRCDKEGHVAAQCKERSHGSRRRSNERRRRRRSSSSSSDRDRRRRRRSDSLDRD

[8] = biological target: T6, aret (Drosophila melanogaster) (UniProt E1JHG6); conditions: 20 nM protein, 1.5 uM RNA pool; 20 mM HEPES pH 7.8, 70 mM KCl, 10 mM NaCl, 10% glycerol, 2 mM DTT, 0.1 ug/uL BSA; 30 min, 4 C (protocol of this paper; not …); cited from earlier work
T6 sequence: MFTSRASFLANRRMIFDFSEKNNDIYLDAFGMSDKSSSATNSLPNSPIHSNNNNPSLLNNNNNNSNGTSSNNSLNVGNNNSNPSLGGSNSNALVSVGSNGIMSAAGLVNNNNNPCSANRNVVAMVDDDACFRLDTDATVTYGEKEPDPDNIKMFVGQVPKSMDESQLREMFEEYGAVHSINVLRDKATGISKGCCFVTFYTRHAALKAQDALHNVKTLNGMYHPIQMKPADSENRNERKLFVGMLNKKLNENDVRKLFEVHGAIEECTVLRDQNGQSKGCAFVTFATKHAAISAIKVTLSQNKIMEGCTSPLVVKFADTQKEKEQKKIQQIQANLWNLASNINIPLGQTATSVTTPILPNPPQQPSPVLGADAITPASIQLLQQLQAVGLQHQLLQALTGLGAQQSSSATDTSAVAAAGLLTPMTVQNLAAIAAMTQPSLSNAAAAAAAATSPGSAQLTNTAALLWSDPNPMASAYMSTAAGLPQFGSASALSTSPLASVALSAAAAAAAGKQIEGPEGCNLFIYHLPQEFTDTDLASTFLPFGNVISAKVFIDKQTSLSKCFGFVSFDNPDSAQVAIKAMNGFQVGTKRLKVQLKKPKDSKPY

Question: Which binding signal (z-score (mean of top ten 7-mers)) [1] does the source give for AUUAUUA [RNAcompete motif RNCMPT00676] here?
Answer: The binding signal (z-score (mean of top ten 7-mers)) was 9.27.

Question: For UAGGA [RNAcompete motif RNCMPT00677], which binding signal (z-score (mean of top ten 7-mers)) (hnrnpa0a (Danio rerio)) is on record?
Answer: The binding signal (z-score (mean of top ten 7-mers)) was 9.94.

Question: For AAUAAG [RNAcompete motif RNCMPT00681], which binding signal (z-score (mean of top ten 7-mers)) [2] is on record?
Answer: The binding signal (z-score (mean of top ten 7-mers)) was 20.7.

Question: With AUUAGGA [RNAcompete motif RNCMPT00684] as the substance, how does the binding signal (z-score (mean of top ten 7-mers)) [3] read?
Answer: Its binding signal (z-score (mean of top ten 7-mers)) is 8.79.

Question: With AGACACA [RNAcompete motif RNCMPT00685] as the substance, how does the binding signal (z-score (mean of top ten 7-mers)) [4] read?
Answer: The binding signal (z-score (mean of top ten 7-mers)) was 13.3.

Question: For ACGCGA [RNAcompete motif RNCMPT00694], which binding signal (z-score (mean of top ten 7-mers)) [5] is on record?
Answer: Its binding signal (z-score (mean of top ten 7-mers)) is 10.9.

Question: Which binding signal (z-score (mean of top ten 7-mers)) [6] does the source give for UAUGUA [RNAcompete motif RNCMPT00031] here?
Answer: Its binding signal (z-score (mean of top ten 7-mers)) is 23.4.

Question: For GGAGGA [RNAcompete motif RNCMPT00667], which binding signal (z-score (mean of top ten 7-mers)) [7] is on record?
Answer: The binding signal (z-score (mean of top ten 7-mers)) was 6.1.

Question: For UNUGUGU [RNAcompete motif RNCMPT00003], which binding signal (z-score (mean of top ten 7-mers)) [8] is on record?
Answer: Its binding signal (z-score (mean of top ten 7-mers)) is 21.4.
